# Measured values from article doi:10.1101/2020.11.22.393603 (bioRxiv, 2020).
# B1: full-length recombinant LSD1 (natural protein, Arabidopsis thaliana, UniProt P94077 1-189, looked up)
# chain: MKVADMQDQLVCHGCRNLLMYPRGASNVRCALCNTINMVPPPPPPHDMAHIICGGCRTMLMYTRGASSVRCSCCQTTNLVPAHSNQVAHAPSSQVAQINCGHCRTTLMYPYGASSVKCAVCQFVTNVNMSNGRVPLPTNRPNGTACPPSTSTSTPPSQTQTVVVENPMSVDESGKLVSNVVVGVTTDKK
# Columns and labels:
# [1] = biological target: T1, full-length recombinant GLK1 (Arabidopsis thaliana, UniProt Q9SIV3 1-420); assay: SEC
# T1 sequence (looked up): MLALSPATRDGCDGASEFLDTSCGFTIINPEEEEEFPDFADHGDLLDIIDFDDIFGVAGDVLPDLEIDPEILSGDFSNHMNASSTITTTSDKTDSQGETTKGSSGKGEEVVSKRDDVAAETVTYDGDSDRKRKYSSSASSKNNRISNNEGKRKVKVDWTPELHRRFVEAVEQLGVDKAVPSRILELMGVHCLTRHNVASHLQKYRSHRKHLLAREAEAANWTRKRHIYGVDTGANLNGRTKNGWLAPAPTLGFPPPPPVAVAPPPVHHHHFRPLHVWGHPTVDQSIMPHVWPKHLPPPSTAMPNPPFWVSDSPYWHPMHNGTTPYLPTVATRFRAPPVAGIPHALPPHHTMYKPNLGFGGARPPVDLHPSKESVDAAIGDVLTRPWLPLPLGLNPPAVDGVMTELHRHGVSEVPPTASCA
# [2] = biological target: T2, full-length recombinant GLK2 (Arabidopsis thaliana, UniProt Q9FFH0 1-386); assay: SEC
# T2 sequence (looked up): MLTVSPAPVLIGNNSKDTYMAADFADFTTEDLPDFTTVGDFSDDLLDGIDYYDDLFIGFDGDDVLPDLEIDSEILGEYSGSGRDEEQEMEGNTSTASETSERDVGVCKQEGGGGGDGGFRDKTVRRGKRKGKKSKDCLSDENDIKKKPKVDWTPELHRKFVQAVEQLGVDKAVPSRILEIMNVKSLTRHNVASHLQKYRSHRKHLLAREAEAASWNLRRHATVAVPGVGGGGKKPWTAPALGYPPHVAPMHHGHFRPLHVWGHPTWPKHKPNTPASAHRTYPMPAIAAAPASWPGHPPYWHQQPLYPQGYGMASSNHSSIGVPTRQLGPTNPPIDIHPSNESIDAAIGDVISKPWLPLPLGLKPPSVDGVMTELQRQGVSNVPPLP
binder,measurement,setting,value
B1,binding result,[1],binds
same,binding result,[2],binds
